Reference: US11274129B2, “Methods for protein tyrosine phosphorylation profiling with variant SH2 domains” (priority 2016, dated 2022)

Test system: mixture of 40 different pTyr-including peptides derived from ITRMs
Experiment: Capture of pTyr-including peptides from a mixture of ITRM peptides by QuadM-TrM tandem Superbinder versus TrM human Src SH2 Superbinder, scheduled PRM
Format: binding
Conditions: for (QT-TrM)/mean: QuadM-TrM tandem vs TrM human Src SH2 Superbinder, PRM peak area
Source text: A QuadM-TrM tandem Superbinder (SEQ ID NO: 15) was produced in E. Coli by expressing a recombinant DNA that contained the gene encoding the QuadM human Src Superbinder (SEQ ID NO: 12) in tandem with the gene encoding the TrM human Src Superbinder (SEQ ID NO: 5). Equal molar amounts (200 pmole) of the QuadM-TrM tandem Superbinder and the TrM human Src SH2 Superbinder were used to capture pTyr-including peptides from a mixture of 40 different pTyr-including peptides (200 fmole each) derived from ITRMs. The isolated peptides were identified by scheduled PRM and quantified based on the corresponding MS peak area.
Shown are the relative preferences of each pTyr-including peptide for the QuadM-TrM tandem Superbinder versus the TrM human Src SH2 Superbinder, as defined by the value of “(QT-TrM)/Mean”, where “QT” represents the amount of pTyr-including peptide captured by the QuadM-TrM tandem Superbinder, “TrM” represents the amount of pTyr-including peptide captured by the TrM human Src SH2 Superbinder, and “Mean” represents the mean amount of pTyr-including peptide captured by both the QuadM-TrM tandem Superbinder and the TrM human Src SH2 Superbinder. Yellow and blue shaded boxes indicate hydrophobic and hydrophilic residues, respectively, at the pTyr+3 position in the sequence of the pTyr-including peptide.

B1: QuadM-TrM tandem Superbinder: QuadM human Src Superbinder in tandem with the TrM human Src Superbinder in a single protein (protein)
chain: DSIQAEEWYFGKITRRESERLLLNAENPRGTFLVRESETVKGAYALSVSDFDNAKGLNVRHYLIRKLDSGGFYIWSRTQFNSLQQLVAYYSKHADGLSHRLTTVSPTSKGGSGGSMDSIQAEEWYFGKITRRESERLLLNAENPRGTFLVRESETVKGAYALSVSDFDNAKGLNVRHYLIRKLDSGGFYITSRTQFNSLQQLVAYYSKHADGLSHRLTTVSPTSK
modifications: SH2 protein domain; QuadM-TrM human Src SH2 tandem domain
Q: How did the “capture of pTyr-including peptides relative to the TrM human Src Superbinder” value (200 pmole Superbinder, 200 fmole each peptide) turn out when B1 was run?
A: The value was “improved capture of pTyr-including peptides”.

Q: What about the “(QT-TrM)/mean” value (peptide ARFGAP2_pY445 EVDAEpYEAR) of the same molecule?
A: Its value is 0.3.

Q: What about the “(QT-TrM)/mean” value (peptide ARHGAP15_pY219 SSSTELLSHpYDSDIK) of the same molecule?
A: Its value is 0.3.

Q: And the “(QT-TrM)/mean” value (peptide ARHGEF6_pY644 KPSEEEpYVIR)?
A: Its value is 1.2.

Q: And the “(QT-TrM)/mean” value (peptide ARID1A_pY229 SAYPPPAPApYALSSPR)?
A: The value was 0.3.

Q: What about the “(QT-TrM)/mean” value (peptide ASNS_pY216 DVPLHALpYDNVEK) of the same molecule?
A: Its value is 0.3.

Q: And the “(QT-TrM)/mean” value (peptide C9orf78_pY277 ATDDpYHYEK)?
A: The value was 0.6.

Q: And the “(QT-TrM)/mean” value (peptide CD3D_pY160 DDAQpYSHLGGNWAR)?
A: Its value is 0.3.

Q: And the “(QT-TrM)/mean” value (peptide CD3E_pY188 ERPPPVPNPDpYEPIR)?
A: The value was 0.5.

Q: What about the “(QT-TrM)/mean” value (peptide CD3E_pY199 DLpYSGLNQR) of the same molecule?
A: Its value is 0.0.

Q: What about the “(QT-TrM)/mean” value (peptide CD3G_pY160 QTLLPNDQLpYQPLK) of the same molecule?
A: Its value is 0.2.

Q: What about the “(QT-TrM)/mean” value (peptide CD3G_pY171 EDDQpYSHLQGNQLR) of the same molecule?
A: The value was 0.0.

Q: And the “(QT-TrM)/mean” value (peptide CD28_pY206/209 HpYQPpYAPPR)?
A: Its value is 0.3.

Q: What about the “(QT-TrM)/mean” value (peptide CD28_pY218 DFAApYR) of the same molecule?
A: Its value is 1.3.

Q: What about the “(QT-TrM)/mean” value (peptide CD84_pY296 IpYDEILQSK) of the same molecule?
A: Its value is −0.1.

Q: What about the “(QT-TrM)/mean” value (peptide CD84_pY316 EEPVNTVpYSEVQFADK) of the same molecule?
A: The value was 0.1.

Q: What about the “(QT-TrM)/mean” value (peptide CD247_pY72 SADAPAYQQGQNQLpYNELNLGR) of the same molecule?
A: The value was 1.5.

Q: What about the “(QT-TrM)/mean” value (peptide CD247_pY111 NPQEGLpYNELQK) of the same molecule?
A: The value was 0.0.

Q: And the “(QT-TrM)/mean” value (peptide CD247_pY142 GHDGLpYQGLSTATK)?
A: The value was 0.4.

Q: And the “(QT-TrM)/mean” value (peptide CLPTM1L_pY527 VNEFGESpYEEK)?
A: Its value is 0.3.

Q: And the “(QT-TrM)/mean” value (peptide DBN1_pY34 ALpYTYEDGSDDLK)?
A: The value was 0.0.

Q: And the “(QT-TrM)/mean” value (peptide EXOC4_pY51 LEEApYEK)?
A: Its value is 0.5.

Q: What about the “(QT-TrM)/mean” value (peptide HCLS1_pY175 AALGpYDYK) of the same molecule?
A: The value was 0.3.

Q: And the “(QT-TrM)/mean” value (peptide ITK_pY512 FVLDDQpYTSSTGTK)?
A: Its value is 1.0.

Q: What about the “(QT-TrM)/mean” value (peptide LAT_pY110 DSDGANSVASpYENEGASGlR) of the same molecule?
A: Its value is −0.2.

Q: And the “(QT-TrM)/mean” value (peptide LAT_pY220 EpYVNVSQELHPGAAK)?
A: Its value is 0.2.

Q: What about the “(QT-TrM)/mean” value (peptide LCP1_pY300 AYpYHLLEQVAPK) of the same molecule?
A: The value was 0.4.

Q: What about the “(QT-TrM)/mean” value (peptide LIMD2_pY102 GNpYDEGFGR) of the same molecule?
A: Its value is 0.0.

Q: What about the “(QT-TrM)/mean” value (peptide PJA2_pY28 AVWPKPAGGpYQTITGR) of the same molecule?
A: Its value is 0.4.

Q: And the “(QT-TrM)/mean” value (peptide PLCG2_pY1245 EFSVNENQLQLpYQEK)?
A: The value was 1.2.

Q: What about the “(QT-TrM)/mean” value (peptide PTPN7_pY149 AQSQEDGDpYINANYIR) of the same molecule?
A: The value was 0.0.

Q: And the “(QT-TrM)/mean” value (peptide RBMX_pY335 SDLpYSSGR)?
A: The value was 0.6.

Q: And the “(QT-TrM)/mean” value (peptide RFTN1_pY20 RPGNIpYSTLK)?
A: The value was 0.3.

Q: And the “(QT-TrM)/mean” value (peptide SIT1_pY148 pYSEVVLDSEPK)?
A: The value was −0.2.

Q: And the “(QT-TrM)/mean” value (peptide SPEN_pY1399 ASALpYESSR)?
A: Its value is −0.1.

Q: What about the “(QT-TrM)/mean” value (peptide THUMPD1_pY22 AQpYVLAK) of the same molecule?
A: Its value is −0.2.

Q: And the “(QT-TrM)/mean” value (peptide TLR7_pY1041 NALATDNHVApYSQVFK)?
A: Its value is 0.1.

Q: And the “(QT-TrM)/mean” value (peptide TRAF3IP3_pY178/179 GQQIpYpYHK)?
A: The value was 0.9.

Q: And the “(QT-TrM)/mean” value (peptide TRAF3IP3_pY179 GQQIYpYHK)?
A: Its value is 1.5.

Q: What about the “(QT-TrM)/mean” value (peptide ZAP70_pY164 MPWpYHSSLTR) of the same molecule?
A: Its value is 0.2.

Q: And the “(QT-TrM)/mean” value (peptide ZAP70_pY292 IDTLNSDGpYTPEPAR)?
A: The value was 0.3.
